This note sets out measurements from patent US20190225689A1 (Janssen / Centocor, published 2019).

For the assay, the target named is T1, human programmed cell death protein 1, PD-1 (human, UniProt Q15116 25-288).
T1 construct: In the assay it was the endogenous PD-1 on circulating CD3+ T cells of treated patients; also called CD279; PDCD1
As to the kind of experiment: PD-1 receptor occupancy by flow cytometry on circulating CD3+ T cells of dosed patients.

T1 sequence (Q15116 25-288 limits assumed): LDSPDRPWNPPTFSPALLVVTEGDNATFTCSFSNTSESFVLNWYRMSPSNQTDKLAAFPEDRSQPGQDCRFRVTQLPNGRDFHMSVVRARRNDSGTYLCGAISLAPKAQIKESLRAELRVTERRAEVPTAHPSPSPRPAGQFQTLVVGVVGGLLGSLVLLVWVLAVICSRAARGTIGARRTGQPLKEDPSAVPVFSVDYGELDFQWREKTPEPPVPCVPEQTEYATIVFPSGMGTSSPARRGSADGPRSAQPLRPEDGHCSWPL

B1: JNJ-63723283 (cetrelimab) (antibody, human IgG4 S228P, kappa, V domains shown)
VH: QVQLVQSGAEVKKPGSSVKVSCKASGGTFSSYAISWVRQAPGQGLEWMGGIIPIFDTANYAQKFQGRVTITADESTSTAYMELSSLRSEDTAVYYCARPGLAAAYDTGSLDYWGQGTLVTVSS
VL: EIVLTQSPATLSLSPGERATLSCRASQSVRSYLAWYQQKPGQAPRLLIYDASNRATGIPARFSGSGSGTDFTLTISSLEPEDFAVYYCQQRNYWPLTFGQGTKVEIKR
notes: IgG4/kappa antibody; also called study drug
For the molecule B1, the binding result is reported as “binds”.
